Measurements as given in paper PMC11884936, “MDC1 mediates Pellino recruitment to sites of DNA double-strand breaks” (Life Science Alliance, 2025).
Square brackets hold non-standard residues; d marks the D form. pT = C[C@@H](OP(=O)(O)O)[C@H](N)C(=O)O; pS = N[C@@H](COP(=O)(O)O)C(=O)O

Tests used:
Experiment in all cases: ITC; peptide in the syringe (typically 160 μM), protein in the cell (16 μM); 25 mM HEPES pH 7.0, 200 mM NaCl, 1 mM TCEP; single-site binding model
Details in all cases: both partners purified
[1] = biological target: T1, Pellino 1 FHA (PELI1 residues 13-273) (human, UniProt Q96FA3 13-273)
T1 construct: Cloned into pGEX-6P1; same preparation for ITC and crystallography by the methods; also called PELI1 (13–273); N-terminal PELI1 fragment; source: E. coli BL21 (DE3), purified (Glutathione Sepharose, 3C cleavage, gel filtration); not shown: GST, N-terminal, cleaved
T1 sequence (looked up): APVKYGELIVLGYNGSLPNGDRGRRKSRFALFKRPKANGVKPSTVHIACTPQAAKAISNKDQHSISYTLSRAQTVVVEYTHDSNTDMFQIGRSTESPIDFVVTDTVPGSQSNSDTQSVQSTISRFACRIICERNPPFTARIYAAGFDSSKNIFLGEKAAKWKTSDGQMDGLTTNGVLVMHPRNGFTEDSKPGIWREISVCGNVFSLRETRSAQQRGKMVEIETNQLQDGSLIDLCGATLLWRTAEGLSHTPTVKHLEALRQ

[2] = biological target: T2, Pellino 2 FHA (PELI2 residues 15-275) (human, UniProt Q9HAT8 15-275)
T2 construct: Cloned into pGEX-6P1; also called PELI2 (15–273); N-terminal PELI2 fragment; source: E. coli BL21 (DE3), purified (Glutathione Sepharose, 3C cleavage, gel filtration); not shown: GST, N-terminal, cleaved
T2 sequence (looked up): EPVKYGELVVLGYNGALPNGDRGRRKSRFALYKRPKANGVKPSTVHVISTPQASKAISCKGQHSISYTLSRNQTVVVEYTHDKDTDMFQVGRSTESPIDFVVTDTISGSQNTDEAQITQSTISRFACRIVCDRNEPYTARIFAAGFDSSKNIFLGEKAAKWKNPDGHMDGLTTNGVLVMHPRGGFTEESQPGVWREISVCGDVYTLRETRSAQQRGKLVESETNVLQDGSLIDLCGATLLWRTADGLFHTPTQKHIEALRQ

[3] = biological target: T3, MDC1 BRCT-repeat fragment (human)
T3 construct: MDC1, BRCT-repeat fragment; source: purified

Binder | Kd [1] [nM] | dH [1] [kJ/mol] | stoichiometry N [1] | Kd [2] [nM] | dH [2] [kJ/mol] | stoichiometry N [2] | Kd [3] [nM] | dH [3] [kJ/mol] | stoichiometry N [3]
Ac-AYEDEP[pT]QAFA-NH2 (SMILES CC(=O)N[C@@H](C)C(=O)N[C@@H](Cc1ccc(O)cc1)C(=O)N[C@@H](CCC(=O)O)C(=O)N[C@@H](CC(=O)O)C(=O)N[C@@H](CCC(=O)O)C(=O)N1CCC[C@H]1C(=O)N[C@H](C(=O)N[C@@H](CCC(N)=O)C(=O)N[C@@H](C)C(=O)N[C@@H](Cc1ccccc1)C(=O)N[C@@H](C)C(N)=O)[C@@H](C)OP(=O)(O)O) [MDC1-pT719 phosphopeptide for ITC (AYEDEPpTQAFA)] | 1140 | -91.2 | 0.78 | 1220 | -145 | 0.52 | – | – | –
Ac-GGKATQA[pS]QEY-NH2 (SMILES CC(=O)NCC(=O)NCC(=O)N[C@@H](CCCCN)C(=O)N[C@@H](C)C(=O)N[C@H](C(=O)N[C@@H](CCC(N)=O)C(=O)N[C@@H](C)C(=O)N[C@@H](COP(=O)(O)O)C(=O)N[C@@H](CCC(N)=O)C(=O)N[C@@H](CCC(=O)O)C(=O)N[C@@H](Cc1ccc(O)cc1)C(N)=O)[C@@H](C)O) [H2AX-pS139 phosphopeptide for ITC (GGKATQApSQEY)] | – | – | – | – | – | – | 850 | -58.2 | 0.6
Ac-AYSSAS[pT]FLYP-NH2 (SMILES CC(=O)N[C@@H](C)C(=O)N[C@@H](Cc1ccc(O)cc1)C(=O)N[C@@H](CO)C(=O)N[C@@H](CO)C(=O)N[C@@H](C)C(=O)N[C@@H](CO)C(=O)N[C@H](C(=O)N[C@@H](Cc1ccccc1)C(=O)N[C@@H](CC(C)C)C(=O)N[C@@H](Cc1ccc(O)cc1)C(=O)N1CCC[C@H]1C(N)=O)[C@@H](C)OP(=O)(O)O, two N-terminal residues as in the other ITC peptides; IRAK1, stretch around T141 with tyrosine at pT+3; also called IRAK-pT141(+3Y); source: synthetic peptide) [IRAK1-pT141(+3Y) phosphopeptide (AYSSASpTFLYP)] | 420 | -72.6 | 0.7 | 700 | -108 | 0.59 | – | – | –
Ac-AYEVLA[pT]QPFC-NH2 (SMILES CC(=O)N[C@@H](C)C(=O)N[C@@H](Cc1ccc(O)cc1)C(=O)N[C@@H](CCC(=O)O)C(=O)N[C@H](C(=O)N[C@@H](CC(C)C)C(=O)N[C@@H](C)C(=O)N[C@H](C(=O)N[C@@H](CCC(N)=O)C(=O)N1CCC[C@H]1C(=O)N[C@@H](Cc1ccccc1)C(=O)N[C@@H](CS)C(N)=O)[C@@H](C)OP(=O)(O)O)C(C)C, two N-terminal residues that are not the MDC1 residues at this place; human MDC1, stretch around T752; Natural stretch with two added N-terminal residues (AY); source: synthetic peptide) [MDC1-pT752 phosphopeptide for ITC (AYEVLApTQPFC)] | 1140 | -77.2 | 0.74 | 1060 | -118 | 0.69 | – | – | –
Ac-AYDLQA[pT]QCFA-NH2 (SMILES CC(=O)N[C@@H](C)C(=O)N[C@@H](Cc1ccc(O)cc1)C(=O)N[C@@H](CC(=O)O)C(=O)N[C@@H](CC(C)C)C(=O)N[C@@H](CCC(N)=O)C(=O)N[C@@H](C)C(=O)N[C@H](C(=O)N[C@@H](CCC(N)=O)C(=O)N[C@@H](CS)C(=O)N[C@@H](Cc1ccccc1)C(=O)N[C@@H](C)C(N)=O)[C@@H](C)OP(=O)(O)O, human MDC1, stretch around T699 with alanine at pT+4; source: synthetic peptide) [MDC1-pT699 phosphopeptide for ITC (AYDLQApTQCFA)] | 2010 | -77.5 | 0.36 | 1120 | -83.4 | 0.55 | – | – | –
Ac-AYEDSE[pT]QPFD-NH2 (SMILES CC(=O)N[C@@H](C)C(=O)N[C@@H](Cc1ccc(O)cc1)C(=O)N[C@@H](CCC(=O)O)C(=O)N[C@@H](CC(=O)O)C(=O)N[C@@H](CO)C(=O)N[C@@H](CCC(=O)O)C(=O)N[C@H](C(=O)N[C@@H](CCC(N)=O)C(=O)N1CCC[C@H]1C(=O)N[C@@H](Cc1ccccc1)C(=O)N[C@@H](CC(=O)O)C(N)=O)[C@@H](C)OP(=O)(O)O, two N-terminal residues that are not the MDC1 residues at this place; human MDC1, stretch around T765; Natural stretch with two added N-terminal residues (AY); The crystallisation methods name only 'the MDC1-pT765 phosphopeptide'; also called MDC1-pT765 (Site 4) phosphopeptide; MDC1 p765 peptide; source: synthetic peptide) [MDC1-pT765 phosphopeptide for ITC and crystallisation (AYEDSEpTQPFD)] | 230 | -92.1 | 0.62 | 370 | -137 | 0.69 | – | – | –
